Read-outs that look alike come from different tables or passages of the source. No end group written: not given here. *: point of attachment. Biotin = O=C1N[C@H]2[C@H](CS[C@H]2CCCCC(=O)*)N1; Ahx = NCCCCCC(=O)O

One assay concerns the target T1, full-length human OGT (Homo sapiens, UniProt O15294).
T1 sequence (O15294 1-1046): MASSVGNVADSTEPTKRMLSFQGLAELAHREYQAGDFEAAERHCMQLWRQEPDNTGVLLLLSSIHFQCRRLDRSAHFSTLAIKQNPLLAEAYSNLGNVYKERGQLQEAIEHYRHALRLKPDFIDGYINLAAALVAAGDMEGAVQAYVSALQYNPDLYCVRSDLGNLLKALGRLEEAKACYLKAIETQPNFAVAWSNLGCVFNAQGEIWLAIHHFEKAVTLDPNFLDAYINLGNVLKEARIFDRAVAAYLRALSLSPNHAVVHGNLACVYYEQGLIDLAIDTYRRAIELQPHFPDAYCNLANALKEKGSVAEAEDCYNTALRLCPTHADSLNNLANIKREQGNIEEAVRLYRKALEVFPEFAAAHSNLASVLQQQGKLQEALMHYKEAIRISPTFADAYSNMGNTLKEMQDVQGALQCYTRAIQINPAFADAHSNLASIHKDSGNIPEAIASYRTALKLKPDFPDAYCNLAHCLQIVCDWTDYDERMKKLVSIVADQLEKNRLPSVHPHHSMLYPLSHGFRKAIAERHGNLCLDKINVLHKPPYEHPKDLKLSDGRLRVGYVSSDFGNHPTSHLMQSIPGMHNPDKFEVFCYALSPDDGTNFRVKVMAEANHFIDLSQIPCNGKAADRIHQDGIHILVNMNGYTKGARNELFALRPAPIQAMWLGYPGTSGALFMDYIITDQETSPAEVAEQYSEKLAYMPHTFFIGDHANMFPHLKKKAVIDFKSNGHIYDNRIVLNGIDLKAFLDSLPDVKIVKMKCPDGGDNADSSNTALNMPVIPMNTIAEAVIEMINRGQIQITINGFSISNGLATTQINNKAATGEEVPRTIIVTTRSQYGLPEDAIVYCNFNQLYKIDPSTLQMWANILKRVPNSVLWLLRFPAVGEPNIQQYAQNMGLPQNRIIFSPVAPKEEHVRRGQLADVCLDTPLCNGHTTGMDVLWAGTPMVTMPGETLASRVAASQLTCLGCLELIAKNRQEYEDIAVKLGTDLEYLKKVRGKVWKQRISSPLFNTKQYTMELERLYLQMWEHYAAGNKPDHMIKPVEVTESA
The experiment in a line: OGT inhibition assay. The format is biochemical.

Assay [1] addresses T2, OGT4.5 (crystallizable construct of O-GlcNAc transferase: catalytic region appended to 4.5 TPRs) (human, UniProt O15294 323-1041).
T2 sequence: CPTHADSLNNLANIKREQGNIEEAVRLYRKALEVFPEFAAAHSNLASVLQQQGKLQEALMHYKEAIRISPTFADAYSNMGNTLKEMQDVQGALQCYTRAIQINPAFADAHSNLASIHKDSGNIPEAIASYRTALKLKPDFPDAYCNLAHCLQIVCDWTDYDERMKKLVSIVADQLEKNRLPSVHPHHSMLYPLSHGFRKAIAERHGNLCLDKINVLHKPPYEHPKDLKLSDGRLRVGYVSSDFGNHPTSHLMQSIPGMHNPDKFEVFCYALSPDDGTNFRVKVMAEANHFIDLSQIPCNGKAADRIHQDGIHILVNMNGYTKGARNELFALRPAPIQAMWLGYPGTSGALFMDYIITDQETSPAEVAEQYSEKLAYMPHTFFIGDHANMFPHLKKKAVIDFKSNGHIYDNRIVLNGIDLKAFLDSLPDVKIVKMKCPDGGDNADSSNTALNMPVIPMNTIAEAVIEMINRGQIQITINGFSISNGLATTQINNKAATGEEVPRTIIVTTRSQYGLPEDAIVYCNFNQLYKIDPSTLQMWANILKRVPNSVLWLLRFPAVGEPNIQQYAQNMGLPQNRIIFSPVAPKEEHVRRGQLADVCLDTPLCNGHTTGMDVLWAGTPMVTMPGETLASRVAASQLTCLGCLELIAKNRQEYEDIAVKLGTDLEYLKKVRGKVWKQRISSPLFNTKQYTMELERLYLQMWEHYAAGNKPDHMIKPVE
The experiment in a line: crystal structure.

Assay [2] addresses T3, O-GlcNAc transferase (OGT), as used in the fluorescence activity assay (human, UniProt O15294 1-1046).
T3 sequence (looked up): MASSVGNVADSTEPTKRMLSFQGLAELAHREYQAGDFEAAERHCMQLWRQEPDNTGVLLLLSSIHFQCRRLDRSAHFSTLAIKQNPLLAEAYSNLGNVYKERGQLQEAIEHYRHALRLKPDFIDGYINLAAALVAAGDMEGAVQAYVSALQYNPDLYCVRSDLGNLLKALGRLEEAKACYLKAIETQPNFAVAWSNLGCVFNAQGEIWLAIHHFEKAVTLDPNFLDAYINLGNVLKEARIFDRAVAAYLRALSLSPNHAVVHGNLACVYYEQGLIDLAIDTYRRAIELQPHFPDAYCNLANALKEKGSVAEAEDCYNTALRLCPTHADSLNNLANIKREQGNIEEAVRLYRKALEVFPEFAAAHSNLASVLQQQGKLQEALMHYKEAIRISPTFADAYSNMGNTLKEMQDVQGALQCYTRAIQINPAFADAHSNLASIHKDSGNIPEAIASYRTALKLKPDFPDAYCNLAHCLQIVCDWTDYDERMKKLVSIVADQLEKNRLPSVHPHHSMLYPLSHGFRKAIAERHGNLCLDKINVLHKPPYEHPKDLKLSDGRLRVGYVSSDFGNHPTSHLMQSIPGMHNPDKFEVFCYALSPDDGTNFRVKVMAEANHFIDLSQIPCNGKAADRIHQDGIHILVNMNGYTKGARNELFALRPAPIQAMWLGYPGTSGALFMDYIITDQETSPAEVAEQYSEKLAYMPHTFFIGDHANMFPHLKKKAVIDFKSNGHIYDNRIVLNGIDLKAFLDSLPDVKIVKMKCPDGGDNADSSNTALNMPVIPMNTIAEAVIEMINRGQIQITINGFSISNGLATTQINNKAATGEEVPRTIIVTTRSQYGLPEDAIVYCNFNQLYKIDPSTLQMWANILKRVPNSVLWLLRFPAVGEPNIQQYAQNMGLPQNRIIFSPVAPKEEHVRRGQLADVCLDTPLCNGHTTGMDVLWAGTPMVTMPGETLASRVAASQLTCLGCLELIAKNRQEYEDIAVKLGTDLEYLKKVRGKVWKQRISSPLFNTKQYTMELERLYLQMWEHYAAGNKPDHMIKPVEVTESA
The experiment in a line: enzyme inhibition kinetics.

Assay [3] addresses T3, O-GlcNAc transferase (OGT), as used in …. Put plainly: enzyme inhibition kinetics. This is another data set of the same source.
The target is the same in assay [4]. Put plainly: enzyme inhibition kinetics. The source holds these as a separate data set.
Assay [5] deals with T2, OGT4.5 (crystallizable construct of …). The experiment in a line: BLI.

For DDSDLYSPRYSFSED [repeat 2 of SORB1], at full-length human OGT, the “inhibition of OGT (in words)” value is given as “none of these four peptides inhibited OGT”. Still for that read-out and setting: with PEENPYFPTYKFPEL [repeat 1 of SORB1] the entry was “none of these four peptides inhibited OGT”. Regarding PTSKAYSPRYSISDR [SOS1], the “inhibition of OGT (in words)” value at full-length human OGT was “none of these four peptides inhibited OGT”. Still for that read-out and setting: with RGLGEFTPLYPMLFG [SCLY] the entry was “none of these four peptides inhibited OGT”. On to FMPKYSI [truncated P11 peptide (tP11)], for which the binding result in assay [1] is on record as “binds”. Take GDFPVMFMPKYSIIF [peptide P11]: the inhibition constant (Ki) in assay [2] stood at 4000 ± 900 µM; in assay [3] it was 2.7 ± 0.3 µM; in assay [4] it was 3.8 ± 0.4 µM. In assay [5], {Biotin-Ahx}-GDFPVMFMPKYSIIF [biotinylated peptide P11 (Biotin-Ahx-GDFPVMFMPKYSIIF)] had a Kd of 0.47 ± 0.16 µM.

The record behind these values is PMC10589721 (Proceedings of the National Academy of Sciences of the …, 2023).
